From PMC7933982 (The Journal of Cell Biology, 2021)

Molecular target: T1, GST-CBD (S. cerevisiae, UniProt P19524 1152-1574)
T1 sequence (looked up): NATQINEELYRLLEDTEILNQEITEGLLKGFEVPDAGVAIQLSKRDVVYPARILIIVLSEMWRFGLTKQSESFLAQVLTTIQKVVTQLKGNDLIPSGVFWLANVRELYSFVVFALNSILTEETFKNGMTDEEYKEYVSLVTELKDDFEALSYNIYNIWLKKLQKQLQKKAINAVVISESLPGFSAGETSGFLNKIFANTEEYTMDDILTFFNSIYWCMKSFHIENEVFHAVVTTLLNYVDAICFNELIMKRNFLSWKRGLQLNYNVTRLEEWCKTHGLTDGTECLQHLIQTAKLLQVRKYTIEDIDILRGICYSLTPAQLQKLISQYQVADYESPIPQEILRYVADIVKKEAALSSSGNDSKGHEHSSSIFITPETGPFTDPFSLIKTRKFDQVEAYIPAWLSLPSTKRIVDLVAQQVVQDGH
Experiment: pull-down

B1: 6xHis-Pea2_(221–350) (domain or fragment, S. cerevisiae, UniProt P40091 221-350, looked up)
chain: EKNTSSPPISPNAAAIQEEDSSKKLEELETAFSDLQLAHNFLTKQFENDRAEYVQDIEKLTRTNRELQDKLLNNHSNLSKTEKKLHELEQENKELEKANNKLNSSRHNFGMSSPASSPVTWDPSSPSSVG
**Q.** Does B1 bind?
**A.** Result: binds
